# Experimental data as given in patent US20250002610A1 (Genmab, published 2025).
# Changes are numbered by the printed parent chain.
# B1: BisG1-FAPα-FERL/DR4-FERR (bispecific antibody, human IgG1, kappa, lambda)
# heavy 1: EVQLLESGGGLVQPGGSPRLSCEASGFTFSSYALSWVRQAPGKGLEWVSAISGSGGGRYYADSVKGRFTISRDNSKNTLFLQMNSLRAEDTAVYYCAKEGYSSSGTYWDHWGQGTLVTVSSASTKGPSVFPLAPSSKSTSGGTAALGCLVKDYFPEPVTVSWNSGALTSGVHTFPAVLQSSGLYSLSSVVTVPSSSLGTQTYICNVNHKPSNTKVDKRVEPKSCDKTHTCPPCPAPEFERGPSVFLFPPKPKDTLMISRTPEVTCVVVDVSHEDPEVKFNWYVDGVEVHNAKTKPREEQYNSTYRVVSVLTVLHQDWLNGKEYKCKVSNKALPAPIEKTISKAKGQPREPQVYTLPPSREEMTKNQVSLTCLVKGFYPSDIAVEWESNGQPENNYKTTPPVLDSDGSFLLYSKLTVDKSRWQQGNVFSCSVMHEALHNHYTQKSLSLSPG
# light 1: AIQMTQSPSSVSASVGDRVTITCRASQGVSSWLAWYQQKPGRAPKLLIYVASTLQSGVPSRFSGSGSGTDFTLTINSLQPEDFATYYCQQANSFPPTFGQGTRLEMKRTVAAPSVFIFPPSDEQLKSGTASVVCLLNNFYPREAKVQWKVDNALQSGNSQESVTEQDSKDSTYSLSSTLTLSKADYEKHKVYACEVTHQGLSSPVTKSFNRGEC
# heavy 2: QVQLQESGPGLVKPSGTLSLTCAVSGGSISSYSWWSWIRQPPGKGLEWIGELYHSGSTNYNPSLKSRVTISVDKSKNQFSLKLRSVTAADTAVYYCVRGVATIDYWGQGTLVTVSSASTKGPSVFPLAPSSKSTSGGTAALGCLVKDYFPEPVTVSWNSGALTSGVHTFPAVLQSSGLYSLSSVVTVPSSSLGTQTYICNVNHKPSNTKVDKRVEPKSCDKTHTCPPCPAPEFERGPSVFLFPPKPKDTLMISRTPEVTCVVVDVSHEDPEVKFNWYVDGVEVHNAKTKPREEQYNSTYRVVSVLTVLHQDWLNGKEYKCKVSNKALPAPIEKTISKAKGQPREPQVYTLPPSREEMTKNQVSLTCLVKGFYPSDIAVEWESNGQPENNYKTTPPVLDSDGSFFLYSRLTVDKSRWQQGNVFSCSVMHEALHNHYTQKSLSLSPG
# light 2: QSALTQPPSASGSPGQSVTISCTGTSSDVGGYNFVSWYQQDPGKAPKLLIYEVTKRPSGVPDRFSGSKSGNTASLTVSGLQAEDEADYYCSSYAGSNNVMFGGGTKLTVLGQPKAAPSVTLFPPSSEELQANKATLVCLISDFYPGAVTVAWKADSSPVKAGVETTTPSKQSNNKYAASSYLSLTPEQWKSHRSYSCQVTHEGSTVEKTVAPTECS
# notes: Human IgG1 bispecific made by controlled Fab-arm exchange of IgG1-FAPα-FERL and IgG1-DR4-FERR; monovalent for FAPα and for DR4; also called GEN1057
# Key:
# [1] = target: T1, human DR4 (Death Receptor 4), cell surface expressed on human tumor cell lines (human, UniProt O00220 24-468); test: flow cytometry, HCT-15 cells, n = 1
# T1 construct: also called TNFRSF10A; TRAIL-R1
# T1 sequence: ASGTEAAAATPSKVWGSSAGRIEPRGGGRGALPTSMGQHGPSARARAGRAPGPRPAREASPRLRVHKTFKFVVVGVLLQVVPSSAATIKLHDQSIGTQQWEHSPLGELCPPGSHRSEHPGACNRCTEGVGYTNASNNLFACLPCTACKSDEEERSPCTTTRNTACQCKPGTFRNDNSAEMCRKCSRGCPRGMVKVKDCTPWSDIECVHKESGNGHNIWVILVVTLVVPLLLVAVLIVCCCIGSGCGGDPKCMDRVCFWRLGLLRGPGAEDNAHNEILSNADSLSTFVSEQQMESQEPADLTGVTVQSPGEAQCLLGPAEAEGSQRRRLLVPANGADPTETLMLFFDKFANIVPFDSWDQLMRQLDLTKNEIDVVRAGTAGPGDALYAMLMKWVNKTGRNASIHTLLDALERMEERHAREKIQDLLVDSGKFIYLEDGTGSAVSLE
# [2] = target: T2, human FAPα (Fibroblast activation protein alpha), cell surface expressed (human, UniProt Q12884 1-760); test: flow cytometry, Expi293F cells expressing human FAPα, n = 1
# T2 construct: Endogenous on human lung fibroblasts and CAFs
# T2 sequence: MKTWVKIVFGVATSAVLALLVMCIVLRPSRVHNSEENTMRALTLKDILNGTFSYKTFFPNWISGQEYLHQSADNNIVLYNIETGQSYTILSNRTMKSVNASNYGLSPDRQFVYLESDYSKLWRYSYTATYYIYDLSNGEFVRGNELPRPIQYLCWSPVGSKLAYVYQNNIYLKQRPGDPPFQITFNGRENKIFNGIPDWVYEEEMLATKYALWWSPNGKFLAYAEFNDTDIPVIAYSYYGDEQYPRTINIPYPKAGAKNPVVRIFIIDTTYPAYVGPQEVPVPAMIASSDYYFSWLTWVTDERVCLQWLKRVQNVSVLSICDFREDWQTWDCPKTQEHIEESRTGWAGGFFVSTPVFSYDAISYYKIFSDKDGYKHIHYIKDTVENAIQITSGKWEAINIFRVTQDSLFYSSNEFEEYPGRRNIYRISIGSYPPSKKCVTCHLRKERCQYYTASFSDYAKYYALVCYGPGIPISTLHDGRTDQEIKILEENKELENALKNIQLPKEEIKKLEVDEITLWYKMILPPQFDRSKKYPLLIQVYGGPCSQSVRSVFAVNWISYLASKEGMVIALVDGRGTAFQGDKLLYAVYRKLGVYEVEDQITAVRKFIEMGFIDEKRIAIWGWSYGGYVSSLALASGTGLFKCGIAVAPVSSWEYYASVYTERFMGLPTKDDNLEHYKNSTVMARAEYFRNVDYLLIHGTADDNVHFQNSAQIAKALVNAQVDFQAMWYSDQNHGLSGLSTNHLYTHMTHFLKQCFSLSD
# Protocol: (§1) Binding of BisG1-FAPα-FERL/DR4-FERR, BisG1-FAPα-FEAL/b12-FEAR and IgG1-FAPα-FERL to FAPα of species commonly used for nonclinical toxicology studies was assessed by flow cytometry using Expi293F cells transiently expressing FAPα from different animal species. IgG1-b12 was included as negative control.
# (§2) Expi293F cells expressing recombinant FAPα from various species (human, cynomolgus monkey, dog, pig, rat or mouse) were seeded (20,000 cells/well) in 96-Well round bottom plates (Greiner Bio-one, Cat #650101). Antibody dilutions were prepared using FACS buffer, consisting of PBS (Capricorn Scientific, Cat #PBS-10XA, diluted to 1×PBS in distilled water)+1% BSA (Roche, Cat #10735086001)+0.02% Sodium Azide (Bio-World, Cat #41920044-3). Plates were centrifuged, supernatant was removed, and cells were resuspended in 100 μL of antibody dilutions (concentration range 30-0.00017 μg/mL with three-fold serial dilutions using FACS buffer) of BisG1-FAPα-FERL/DR4-FERR, BisG1-FAPα-FEAL/b12-FEAR, IgG1-FAPα-FERL and IgG1-b12 and incubated for 30 min at 4° C. […] After 30 min incubation at 4° C., cells were washed with FACS buffer and resuspended in FACS buffer supplemented with TO-PRO-3 Iodide viability marker (Invitrogen, Cat #T3605, diluted 1:4,000). Antibody binding to viable cells (gMFI of PE on TO-PRO-3 negative cells) was analyzed by flow cytometry on a FACS Celesta and FACS_Diva software (first two experiments) or iQue® 3 and FlowJo software (last experiment). gMFI was determined and visualized using GraphPad Prism. Binding curves were analyzed using nonlinear regression analysis. The concentration (pg/mL) at which 50% of the maximal effect was observed (EC₅₀) was derived from the fitted curves.
# [3] = target: T1, human DR4 (Death Receptor 4), cell …; test: flow cytometry, HCT-15 cells, n = 2
# [4] = target: T3, cynomolgus monkey FAPα on Expi293F cells (cynomolgus monkey (Macaca fascicularis), UniProt Q12884 1-760 (human entry)); test: flow cytometry, Expi293F cells expressing cynomolgus monkey FAPα, n = 3
# T3 sequence: T2 sequence with S29P, V261F, E417D
# Protocol: as §1, §2
binder,measurement,setting,value
B1,EC50,[1],0.59 µg/mL
same,EC50,[2],0.18 µg/mL
same,EC50,[3],0.69 µg/mL
same,EC50,[4],0.16 µg/mL
